Read-outs that look alike come from different tables or passages of the source.
How the values were obtained:
Experiment in all cases: ELISA
[1] = target: T1, GST-HttExon1Q21 (recombinant huntingtin exon 1 protein with 21 polyQ repeats fused to an N-terminal GST tag) (;human, UniProt P08515 1-218 = GST; P42858 1-88)
[2] = target: T2, HD21 (huntingtin exon 1 protein with 21 polyQ repeats after cleavage of the GST tag; aggregation reaction) (human, UniProt P42858 1-88)
T2 chain: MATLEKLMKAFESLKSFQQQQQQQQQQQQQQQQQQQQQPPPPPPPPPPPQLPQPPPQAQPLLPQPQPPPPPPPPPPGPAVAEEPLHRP

[3] = target: T3, HD49 (huntingtin exon 1 protein with 49 polyQ repeats after cleavage of the GST tag; aggregation reaction) (human, UniProt P42858 1-88)
T3 chain: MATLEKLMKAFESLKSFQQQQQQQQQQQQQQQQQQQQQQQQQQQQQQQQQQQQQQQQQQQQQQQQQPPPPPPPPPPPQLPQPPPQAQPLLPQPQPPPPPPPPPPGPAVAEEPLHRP

[4] = target: T1, GST-HttExon1Q21 (recombinant huntingtin …); remark: listed apart in the source
[5] = target: T2, HD21 (huntingtin exon 1 protein with 21 …)
[6] = target: T3, HD49 (huntingtin exon 1 protein with 49 …)
[7] = target: T1, GST-HttExon1Q21 (recombinant huntingtin …); remark: listed apart in the source
[8] = target: T2, HD21 (huntingtin exon 1 protein with 21 …)
[9] = target: T3, HD49 (huntingtin exon 1 protein with 49 …)
[10] = target: T1, GST-HttExon1Q21 (recombinant huntingtin …); remark: listed apart in the source
[11] = target: T2, HD21 (huntingtin exon 1 protein with 21 …)
[12] = target: T3, HD49 (huntingtin exon 1 protein with 49 …)
[13] = target: T4, BSA-coupled synthetic peptide of the P-rich domain sequence of huntingtin exon 1 (coupled to BSA)
T4 peptide: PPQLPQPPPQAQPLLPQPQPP

[14] = target: T1, GST-HttExon1Q21 (recombinant huntingtin …); remark: listed apart in the source
Target sequence in this assay (P08515 1-218, tags or fused parts left off): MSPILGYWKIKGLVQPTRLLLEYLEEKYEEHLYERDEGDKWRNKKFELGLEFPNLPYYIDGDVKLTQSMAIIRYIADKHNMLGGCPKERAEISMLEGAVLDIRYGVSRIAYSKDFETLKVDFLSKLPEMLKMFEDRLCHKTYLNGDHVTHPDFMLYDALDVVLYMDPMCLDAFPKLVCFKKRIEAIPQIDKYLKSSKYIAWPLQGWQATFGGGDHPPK

[15] = target: T2, HD21 (huntingtin exon 1 protein with 21 …)
[16] = target: T3, HD49 (huntingtin exon 1 protein with 49 …)
[17] = target: T1, GST-HttExon1Q21 (recombinant huntingtin …); remark: listed apart in the source
[18] = target: T2, HD21 (huntingtin exon 1 protein with 21 …)
[19] = target: T3, HD49 (huntingtin exon 1 protein with 49 …)

B1: NI-302.11H6 (antibody, V domains shown)
VH: EVQLVQSGAVMKKPGDSVRVSCRASTYSFSTYSFTWVRQVPGQGLEWMGWISAYNGHTNYVDSFQGRLTLTTDTSASTAYMELRSLRSDDTAIYYCAAVDTTYYYYGMDVWGQGTLVTVSS
VL: QTVVTQEPTFSVSPGGTVTLTCALRFGSVSSSYYPSWFQQTPGQAPRTLIYSTNTRSSGVPARFSGSILGNKAALTIAGAQANDEADYYCVLYMGSGIGVFGGGTKLTVL
[1]
  EC50: 0.2 nM
[2]
  EC50: 1.2 nM
[3]
  EC50: 0.2 nM
[4]
  EC50: 0.24 nM
[5]
  EC50: 1.22 nM
[6]
  EC50: 0.16 nM

B2: NI-302.71F6 (antibody, V domains shown)
VH: QVQLQQWGAGLLKPSETLSLTCAVYGGSLSGYYWSWIRQPPGKGLEWIGEVNHSGGTNLNSSLKSRVIISVDKSKKQFSLKLSSVTAADTAMYFCARGYSYDPKYYFDSWSQGTLVTVSS
VL: QSALTQPASVSGSPGQAITISCTGTSSDIGSYDFVSWYQQDPGKAPKVIIYGVNKRPSGVSNRFSGSKSGNTASLTISGLQADDEADYYCCSYAGSTTWVFGGGTKLTVL
[1]
  EC50: 3 nM
[2]
  EC50: 7.6 nM
[3]
  EC50: 4.4 nM
[4]
  EC50: 3 nM
[5]
  EC50: 7.6 nM
[6]
  EC50: 4.4 nM

B3: NI-302.78H12 (antibody, V domains shown)
VH: QVQLQESGPGLVKPSETLSLTCLVSSYSISNGYYWGWIRQPPGKGLEWIGSIYHNGNTYYNPSLKSRVIISVDTSKNQFSLKLRSVTAADTAVYYCAMPSATYYYGSGTQFHAFDVWGQGTTVTVSS
VL: QSALTQPRSVSGSPGQSVTISCTGTSRDVGNYNYVSWYQQHPGEVPKLIIYDVSERPSGVPDRFSGSKSGNTASLTISGLQAEDEADYYCCSYAGSYTFEVFGGGTKLTVL
[1]
  EC50: 0.5 nM
[2]
  EC50: 1.1 nM
[3]
  EC50: 1.6 nM
[7]
  EC50: 0.5 nM
[8]
  EC50: 1.1 nM
[9]
  EC50: 1.6 nM

B4: NI-302.3D8 (antibody, V domains shown)
VH: EVQLVQSGGGLVQPGGSLRLSCEASGFIFKTYAMSWVRQLPGRGLEWVSAISATGGSTFYAESVKGRLTISRDTAKNTVYLQMNNLRAEDTAMYYCAKGSTAVYLFDSWGQGTLVTVSS
VL: DIQMTQSPSSLSASVGDRVTLTCRASQDIRNFLAWIQQKPGKPPKSLIYAASTLQSGVPSRFSGSGSGTDFTLTISSLHPEDFATYYCQQFYNYPPTFGQGTKVEIK
[1]
  EC50: 0.05 nM
[2]
  EC50: 0.02 nM
[3]
  EC50: 0.03 nM
[4]
  EC50: 0.05 nM
[5]
  EC50: 0.02 nM
[6]
  EC50: 0.03 nM

B5: NI-302.37C12 (antibody, V domains shown)
VH: EVQLVESGGGLVQPGGSLRLSCVASALTVTNSQMTWVRRAPGRGLEWVSVIYTSGSAYYADSVKGRFTISRDNSKNTVFLQMNSLRVEDTAVYYCAKGPSAYYYGLDLWGQGTTVTVSS
VL: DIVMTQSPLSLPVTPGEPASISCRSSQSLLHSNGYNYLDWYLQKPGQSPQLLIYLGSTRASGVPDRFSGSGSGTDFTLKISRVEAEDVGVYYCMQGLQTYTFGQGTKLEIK
[1]
  EC50: 0.33 nM
[2]
  EC50: 2.5 nM
[3]
  EC50: 4.9 nM
[10]
  EC50: 0.3 nM
[11]
  EC50: 2.5 nM
[12]
  EC50: 4.9 nM

B6: NI-302.22H9 (antibody, V domains shown)
VH: EVQLVESGGGLVHPWGSLRVSCAASGFSVSNYAITWVRQAPGKGLEYISVIYRDGRTYYGDSVRGRFTISRDDSKNTIYLQMNSLRFEDTAVYYCARAHGQYYYGVDVWGQGTTVTVSS
VL: DVVMTQSPLSLSVSPGEPASISCRSSQSLLHSNGYNYLDWYRQKPGQSPQLLIYLNSNRASGVPDRFSGSGSGTEFTLTISRVEAEDVGVYYCMQSLQTFTFGGGTKVEIK
[1]
  EC50: 1.6 nM
[2]
  EC50: 11 nM
[3]
  EC50: 22 nM
[10]
  EC50: 1.6 nM
[11]
  EC50: 11 nM
[12]
  EC50: 21 nM

B7: NI-302.7A8 (antibody, V domains shown)
VH: EVQLVESGGGSVQPGGSLRLSCVASGFIFRNSWMTWVRQDPGKGLEWVANIKEDGSRTYYVDSVKGRFTISRDNAKNSLYLQMNSLRAEDTAVYYCARGDYNSGIYYFPGDYWGQGTLVTVSS
VL: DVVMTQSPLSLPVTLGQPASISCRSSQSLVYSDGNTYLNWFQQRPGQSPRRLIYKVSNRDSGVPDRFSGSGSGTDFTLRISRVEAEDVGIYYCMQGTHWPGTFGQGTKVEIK
[1]
  EC50: 0.2 nM
[2]
  EC50: 0.4 nM
[3]
  EC50: 1.5 nM
[7]
  EC50: 0.2 nM
[8]
  EC50: 0.4 nM
[9]
  EC50: 1.5 nM

B8: NI-302.15D3 (antibody, V domains shown)
VH: EVQLVESGGDLVQPGGSLRLSCAASGFTFSSYWMHWVRQAPGKGLVWVSRISNDGSSKTYADSVKGRFTISRDNAKNTLYLQMNSLRAEDTAVYYCAILGGYCSSTSCRPFDNWGQGTLVTVSS
VL: QSALTQPASVSGSPGQSITISCTGTSSDVGVYNYVSWYQQHPGKAPKLMIFDVSNRPSGISNRFSGSKSGNTASLTISGLQAEDEADYYCSSYTSSDTWVFGGGTKLTIL
[13]
  EC50: 1.2 nM
[14]
  EC50: 4.2 nM
[15]
  EC50: 6.4 nM
[16]
  EC50: 15 nM
[17]
  EC50: 4.2 nM
[18]
  EC50: 6.4 nM
[19]
  EC50: 15 nM

B9: NI-302.2A2 (antibody, V domains shown)
VH: EVQLVESGGGLVQPGGSLRLSCAASGFTFSTYWMNWVRQAPGKGLEWVANIKPDGSDKYYVDSVKGRFTISRDNAKNSLYLQMNSLRDEDTAVYYCARGDGSGWNVYWGQGTLVTVSS
VL: DIQMTQSPDSLAVSLGERATINCKSSQSLLYTSKNKDSKNYLGWYQQKPGQPPKLLIYWASTRESGVPDRFSGSGSGTDFTLTISSLQAEDVAVYYCQQYYTTPQFGGGTKVEIK
[13]
  EC50: 1.4 nM
[14]
  EC50: 10.1 nM
[15]
  EC50: 12.3 nM
[16]
  EC50: > 100 nM
[17]
  EC50: 10.1 nM
[18]
  EC50: 12.3 nM
[19]
  EC50: ~100 nM

B10: NI-302.46C9 (antibody, V domains shown)
VH: QVQLQESGPGLVKPSQTLSLTCTVSGASVSSGAYYWSWIRQPAGKRLEWIGRVYPTWSTNYNPSLESRVTISLDTSNNQFSLKLTSLTAADTAVYYCAREAPGDYDAAPLAYWGQGTLVTVSS
VL: DIQMTQSPSSLSASVGDRVTITCRASQYISHYLNWYRQKPGKAPQLVIYAASSLQSEVPSRFSGSGSGPEFTLTISSLQPEDFATYYCQQSYTTPRTFGQGTKLEIK
[1]
  EC50: 0.07 nM
[2]
  EC50: 0.3 nM
[3]
  EC50: 0.05 nM
[17]
  EC50: ~0.07 nM
[18]
  EC50: 0.3 nM
[19]
  EC50: ~0.05 nM

B11: NI-302.44D7 (antibody, V domains shown)
VH: EVQLVQSGGGLVQPGGSLRLSCAASGFTFSSYAMSWVRQAPGKGLEWVSGIGYSDTSTYYADSVKGRFTVSRDISKNTLYLQMNSLRAEDTAVYYCAKGTRDYYGMDVWGQGTMVTVSS
VL: QTVVTQEPSFSVSPGGTVTLTCGLSSGSVSTSYYPSWYQQTPGRAPRTLIYSTNTRSSGVPDRFSGSILGNKAALTITGAQADDESDYYCVLFMGSGIGVFGGGTRLTVL
[1]
  EC50: 5.4 nM
[2]
  EC50: 11 nM
[3]
  EC50: 10 nM
[10]
  EC50: 5.4 nM
[11]
  EC50: 11 nM
[12]
  EC50: 10 nM

Reference: patent US20170166631A1 (published 2017)
